Data taken from patent US20240279353A1 (KIROMIC BIOPHARMA, published 2024).

Key:
Test in all cases: EC50 binding assay (ELISA screening, format not stated)
[1] = biological target: Mesothelin Isoform 2 (IsoMSLN), as used in the EC50 binding assay (human) (UniProt Q13421)
[2] = biological target: Mesothelin Isoform 1, as used in the EC50 binding assay (human) (UniProt Q13421)
[3] = biological target: T1, Mesothelin Isoform 2 (IsoMSLN), as used in the EC50 binding assay (human, UniProt Q13421 37-598)
T1 construct: also called MSLN Isoform 2; mesothelin isoform-2 polypeptide
T1 sequence (Q13421 37-606 limits assumed, form in doubt): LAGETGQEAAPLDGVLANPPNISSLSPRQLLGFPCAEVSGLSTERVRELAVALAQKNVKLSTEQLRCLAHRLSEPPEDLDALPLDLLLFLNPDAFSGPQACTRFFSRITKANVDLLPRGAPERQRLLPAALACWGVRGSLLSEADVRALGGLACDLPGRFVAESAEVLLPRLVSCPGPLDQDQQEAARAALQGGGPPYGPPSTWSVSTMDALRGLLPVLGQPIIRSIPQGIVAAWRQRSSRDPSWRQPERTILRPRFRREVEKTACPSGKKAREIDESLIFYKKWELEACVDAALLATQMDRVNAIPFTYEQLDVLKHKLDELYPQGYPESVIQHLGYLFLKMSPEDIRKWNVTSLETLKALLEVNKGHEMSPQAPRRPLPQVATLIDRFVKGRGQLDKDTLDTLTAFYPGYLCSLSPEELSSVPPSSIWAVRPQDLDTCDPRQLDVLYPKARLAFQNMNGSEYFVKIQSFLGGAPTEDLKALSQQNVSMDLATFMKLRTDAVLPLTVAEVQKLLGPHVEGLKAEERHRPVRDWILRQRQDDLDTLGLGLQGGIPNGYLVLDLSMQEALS

Sequence of Mesothelin Isoform 2 (IsoMSLN), as used in the EC50 binding assay (human) (Q13421 37-606 limits assumed, form in doubt): as above
Sequence of Mesothelin Isoform 1, as used in the EC50 binding assay (human) (Q13421 other isoform, or with tags, fused parts or gaps limits assumed): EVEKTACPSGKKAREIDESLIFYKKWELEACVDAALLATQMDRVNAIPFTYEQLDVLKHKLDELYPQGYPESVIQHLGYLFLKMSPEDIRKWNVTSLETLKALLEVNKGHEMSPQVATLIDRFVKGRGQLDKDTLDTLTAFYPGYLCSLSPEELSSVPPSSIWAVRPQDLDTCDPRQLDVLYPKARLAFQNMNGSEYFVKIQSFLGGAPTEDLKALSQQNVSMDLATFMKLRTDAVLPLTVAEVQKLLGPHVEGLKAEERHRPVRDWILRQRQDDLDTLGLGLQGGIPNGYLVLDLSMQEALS

EC50 [1] [µg/mL] | EC50 [2] [µg/mL] | EC50 [3] [µg/mL] | Molecule
0.11 | 0.15 | – | anti-MSLN antibody clone K1 (commercially available)
– | – | 0.073 | anti-IsoMSLN monoclonal antibody clone 1B6 (antibody, V domains shown, also called IB6) VH: EVKLVESGGGLVKPGGSLKLSCEASGFTFSRYAMSWVRHTPEKRLAWVASITFGGDPYYPDGLKGRFTISRDNTRNILYLQMNSLRSEDTAMYYCVRHESWFAYWGQGTLVTVSA VL: DVLMTQTPLSLPVSLGEQVSISCRSSQTIVHTDGNIYLEWYLQNPGQSPRLLIYKISNRFSGVPDRFSGSGSGTDFTLKISRVEAEDLGIYYCFQASHVPYTFGGGTKLEIK
